Measurements reported in PMC8087810, “Interfacing aptamers, nanoparticles and graphene in a hierarchical structure for highly selective detection of biomolecules in OECT devices”.

Biological target: alpha-thrombin (UniProt P00734;P00734 328-363;364-622)
Test: OECT aptasensor (sigmoidal fit of delta ratio, EC50); EC50 of sensor response, 1-100 pM thrombin, Tris buffer; LoD 5.000±0.087 pM; surface-immobilized aptamer; Thrombin: Tris buffer (composition not in material); BSA: PBS (137 mM NaCl, 2.7 mM KCl, 10 mM Na2HPO4, 1.8 mM KH2PO4), pH 7.4 (Tris stated as same pH); BSA and

B1: TBA15 (thrombin binding aptamer, Fc/SH modified) (structured_DNA)
DNA: GGTTGGTGTGGTTGG
modifications: 5' ferrocene; 3' C6-SH thiol, immobilized on AuNPs-PMLG gate electrode, MCH blocked
apparent K (half saturation): 0.0489 nM
